Data taken from patent US20230340111A1 (published 2023).
Residue numbers refer to the chain shown, from its start. Names and notes keep the numbering of the source.

B1: 131I-labeled untagged A2-E90Q (VHH)
VHH: DVQLVESGGGLVQAGGSLRLSCAADEMKFSNYDLAWYRRAPGKQRELAAIITSGGSTNYPDSVKGRFTISRDNAKNTVYLQMNSLKPEDTAVYYCNALRPWPQFSDYWGQGTQVTVSS
modifications: [131I]SGMIB conjugated to lysine side-chain amine groups
B2: 131I-labeled untagged A2-K29Q-E90Q (VHH)
VHH: B1 VHH with K28Q
modifications: [131I]SGMIB conjugated to lysine side-chain amine groups
B3: 131I-labeled untagged A2-M28T-E90Q (VHH)
VHH: B1 VHH with M27T
modifications: [131I]SGMIB conjugated to lysine side-chain amine groups
B4: 131I-labeled untagged A2-K29R-E90Q (VHH)
VHH: B1 VHH with K28R
modifications: [131I]SGMIB conjugated to lysine side-chain amine groups
B5: 131I-labeled untagged VHH A2 (VHH)
VHH: B1 VHH with Q81E
modifications: [131I]SGMIB conjugated to lysine side-chain amine groups
B6: 131I-labeled untagged A2-M28A-E90Q (VHH)
VHH: B1 VHH with M27A
modifications: [131I]SGMIB conjugated to lysine side-chain amine groups
B7: 131I-labeled untagged A1-D59E (VHH)
VHH: DVQLVESGGGLVQPGGSLRLSCAASESIFSRNHMSWYRQAPGKQRELAAIITSEGNTNYPDSVKGRFTISRDNAKNTVYLQMNSLKPEDTAVYYCNTFGRSVAGFYDYWGQGTQVTVSS
modifications: [131I]SGMIB conjugated to lysine side-chain amine groups
B8: 131I-labeled untagged A1-N64Q (VHH)
VHH: B7 VHH with E54D, N56Q
modifications: [131I]SGMIB conjugated to lysine side-chain amine groups
B9: 131I-labeled untagged A1-N64S (VHH)
VHH: B7 VHH with E54D, N56S
modifications: [131I]SGMIB conjugated to lysine side-chain amine groups
B10: 131I-labeled untagged A1-N64E (VHH)
VHH: B7 VHH with E54D, N56E
modifications: [131I]SGMIB conjugated to lysine side-chain amine groups
B11: untagged E90Q variant of VHH A2 (VHH)
VHH: B1 VHH
notes: also called A2-E90Q
B12: untagged M28T-E90Q variant of VHH A2 (VHH)
VHH: B1 VHH with M27T
notes: also called A2-M28T-E90Q; A2-M28TE90Q
B13: untagged K29Q-E90Q variant of VHH A2 (VHH)
VHH: B1 VHH with K28Q
notes: also called A2-K29Q-E90Q
B14: untagged M28A-E90Q variant of VHH A2 (VHH)
VHH: B1 VHH with M27A
notes: also called A2-M28A-E90Q
B15: untagged K29R-E90Q variant of VHH A2 (VHH)
VHH: B1 VHH with K28R
notes: also called A2-K29R-E90Q
B16: untagged N64E variant of VHH A1 (VHH)
VHH: B7 VHH with E54D, N56E
notes: also called A1-N64E
B17: untagged N64S variant of VHH A1 (VHH)
VHH: B7 VHH with E54D, N56S
notes: also called A1-N64S
B18: untagged D59E variant of VHH A1 (VHH)
VHH: B7 VHH
notes: also called A1-D59E
B19: untagged N64Q variant of VHH A1 (VHH)
VHH: B7 VHH with E54D, N56Q
notes: also called A1-N64Q
B20: HA-tagged variant of VHH A2 (VHH)
VHH: B1 VHH with D1Q, V5Q, Q81E
notes: Used as VHH-containing bacterial (periplasmic) extract in ELISA; also called A2 HA-tag
B21: 99mTc-labeled His6-tagged VHH A5 (VHH)
VHH: DVQLVESGGGLVQAGGSLRLSCGVSGNIFSMNLMGWYRQPPGKEREWVALITKDGSTNYEDSVKGRFTISRDNAKNTVSLQMNSLKPEDTAVYYCNAQDGSGWIRAWGWDWGQGTQVTVSS
modifications: [99mTc(H2O)3(CO)3] at the His6-tail
notes: also called 99mTc-A5
B22: 99mTc-labeled His6-tagged VHH A3 (VHH)
VHH: B21 VHH with I28M, E46D, L50V, E60A, A97V
modifications: [99mTc(H2O)3(CO)3] at the His6-tail
notes: also called 99mTc-A3
B23: 99mTc-labeled His6-tagged VHH A2 (VHH)
VHH: B1 VHH with Q81E
modifications: [99mTc(H2O)3(CO)3] at the His6-tail
notes: also called 99mTc-A2; 99mTc-VHH A2
B24: 99mTc-labeled His6-tagged VHH A1 (VHH)
VHH: B7 VHH with E54D
modifications: [99mTc(H2O)3(CO)3] at the His6-tail
notes: also called 99mTc-A1; 99mTc-VHH A1
B25: 99mTc-labeled His6-tagged VHH A4 (VHH)
VHH: DVQLVESGGGLARAGGSLRLSCAASGRAFSSTYAMGWFRQAPGKEREFVADINWSEGSPMYIDSVKDRFTISRDNARNSLYLQMNSLKSEDTAVYYCAARRFGQGYEYWGQGTQVTVSS
modifications: [99mTc(H2O)3(CO)3] at the His6-tail
notes: also called 99mTc-A4

Biological target: T1, human FOLR1 expressed on SKOV-3 ovarian carcinoma cells (human, UniProt P15328 25-234)
T1 construct: Naturally expressed receptor on SKOV-3 cells; also called human FOLR1pos SKOV-3 cancer cells; human FOLR1-expressing cell line SKOV-3
T1 sequence (P15328 25-234 limits assumed): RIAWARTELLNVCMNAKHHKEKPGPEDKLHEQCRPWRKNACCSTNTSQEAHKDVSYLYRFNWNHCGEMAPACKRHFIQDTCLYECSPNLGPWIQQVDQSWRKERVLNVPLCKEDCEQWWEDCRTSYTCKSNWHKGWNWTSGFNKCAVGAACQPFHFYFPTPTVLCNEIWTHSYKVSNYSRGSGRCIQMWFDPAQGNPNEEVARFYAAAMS
Test: saturation binding of 131I-labelled untagged VHH on SKOV-3 cells
Procedure: In a first part, their in vitro behaviour was assessed by means of investigating their cellular binding and retention over time. The binding potential of the resulting radioconjugates was assessed to confirm that this was not affected by the introduction of ¹³¹I-SGMIB into the amino acid sequence of the different VHHs. To this, human FOLR1^pos SKOV-3 cancer cells were incubated with serial dilutions with concentrations ranging from 0 to 300 nM of the different ¹³¹I-labelled, His₆ tagged VHHs. A 100-fold excess of the corresponding unlabeled VHH was added in parallel to saturate the human FOLR1 receptors expressed on cancer cells, to assess non-specific binding.
A1 and A2 parental untagged VHH’s and derivatives were radiolabeled with theranostic isotope ¹³¹I, as described in example 3, and subjected to saturation binding studies as described in example 6.

Row | EC50 | Binder
1 | 2.9 nM | B1
2 | 5.1 nM | B2
3 | 4.8 nM | B3
4 | 3.6 nM | B4
5 | 2.4 nM | B5
6 | 4.1 nM | B6
7 | 2.1 nM | B7
8 | 2.3 nM | B8
9 | 0.9 nM | B9
10 | 2.5 nM | B10

Biological target: T2, human FOLR1 recombinant protein (extracellular domain of human folate receptor alpha) (human, UniProt P15328 25-233)
T2 construct: Bought recombinant protein (Sino Biological); also called hFOLR1; FR-alpha
T2 sequence (P15328 25-233): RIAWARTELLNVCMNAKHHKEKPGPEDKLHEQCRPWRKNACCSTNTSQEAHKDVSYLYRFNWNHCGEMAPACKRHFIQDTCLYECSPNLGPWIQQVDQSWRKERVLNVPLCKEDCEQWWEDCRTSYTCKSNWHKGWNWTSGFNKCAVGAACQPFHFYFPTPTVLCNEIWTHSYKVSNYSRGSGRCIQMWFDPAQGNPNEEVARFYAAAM
Test: SPR (Biacore T200), single cycle kinetics, human FOLR1 immobilized on CM5, untagged VHH as analyte, 1:1 fit
Procedure: The antigen-binding kinetic parameters of untagged, purified VHH A1 and A2 variants were determined by surface plasmon resonance on immobilized human FOLR1 recombinant protein with a Biacore T200 instrument (GE Healthcare). The human FOLR1 recombinant protein (Sino Biological) was immobilized in 10 mM sodium acetate, pH 5.5 on a CM5 chip (GE Healthcare) via amine coupling chemistry to 250 RU. VHHs were analyzed using single cycle kinetics with a threefold serial dilution in HBS (5 nM-0.062 nM) and an analyte flow rate of 40 µl/min. The association phase took 5× 450 s and the dissociation phase 900 s. Regeneration was done by a single injection of 50 mM glycine-HCl, pH 2.5, 2 M MgCl₂ for 30 s at 30 µl/min, followed by 120 s stabilization. Binding curves were fitted using a ‘1:1 (antigen:analyte)’ binding model in Biacore T200 evaluation software.

Row | Kd | koff | kon | Binder
11 | 0.25 nM | 0.0006 s⁻¹ | 2.3e+06 M⁻¹ s⁻¹ | B11
12 | 0.56 nM | 0.0013 s⁻¹ | 2.3e+06 M⁻¹ s⁻¹ | B12
13 | 0.27 nM | 0.00048 s⁻¹ | 1.8e+06 M⁻¹ s⁻¹ | B13
14 | 0.81 nM | 0.0016 s⁻¹ | 2e+06 M⁻¹ s⁻¹ | B14
15 | 0.29 nM | 0.00053 s⁻¹ | 1.9e+06 M⁻¹ s⁻¹ | B15
16 | 0.092 nM | 0.00017 s⁻¹ | 1.8e+06 M⁻¹ s⁻¹ | B16
17 | 0.057 nM | 0.00014 s⁻¹ | 2.5e+06 M⁻¹ s⁻¹ | B17
18 | 0.083 nM | 0.00019 s⁻¹ | 2.3e+06 M⁻¹ s⁻¹ | B18
19 | 0.036 nM | 8.2e-05 s⁻¹ | 2.3e+06 M⁻¹ s⁻¹ | B19

Biological target: T3, human folate receptor beta (FOLR2), extracellular domain, recombinant (human, UniProt P14207 17-228, limits assumed)
T3 construct: extracellular domain; Bought protein; also called human FOLR2
T3 sequence (P14207 17-228 limits assumed): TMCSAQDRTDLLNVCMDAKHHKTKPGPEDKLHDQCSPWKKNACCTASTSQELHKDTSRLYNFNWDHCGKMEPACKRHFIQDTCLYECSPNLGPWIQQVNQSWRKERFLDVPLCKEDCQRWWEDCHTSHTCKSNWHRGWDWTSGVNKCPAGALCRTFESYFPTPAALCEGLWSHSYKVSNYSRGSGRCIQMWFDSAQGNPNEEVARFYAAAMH
Test: ELISA; coated recombinant protein, HA-tagged VHH in bacterial extract, anti-HA detection; A405 antigen well / blank well
Procedure: (§1) The day before, 0.1 µg recombinant protein at a concentration of 1 µg/mL in 100 mM NaHCO3, pH 8.2 was coated in a 96-well ELISA plate (Nunc MaxiSorp). Per VHH clone also a blank coated well was foreseen (only buffer). The wells were overcoated with protein-free T20 (PBS) blocking buffer (Pierce). After washing with PBS, pH7.4, 0.05% Tween, VHH-containing bacterial extract was added to every well. Binding of HA-tagged VHHs was detected by using mouse anti-HA.11 epitope tag (clone 16B12, Biolegend) as the primary Ab and goat anti-mouse IgG (whole molecule) alkaline phosphatase conjugate (Sigma-Aldrich) as the secondary Ab, with thorough washing with PBS, pH 7.4, 0.05% Tween in between. Signals were developed using phosphatase substrate (Sigma-Aldrich) in AP blot buffer (100 mM NaCl, 50 mM MgCl2, 100 mM Tris, pH 9.5). The absorbance was determined at 405 nm using an absorbance microplate reader (Molecular Devices). Per clone the ratio was determined between the absorbance in the antigen-coated well versus the well without antigen.

Row | signal-to-background ratio | Binder
20 | ~1 | B20

Biological target: T4, human folate receptor gamma (FOLR3), recombinant (human, UniProt P41439 23-245, limits assumed)
T4 construct: extracellular domain; Bought protein; also called human FOLR3
T4 sequence (P41439 23-245 limits assumed): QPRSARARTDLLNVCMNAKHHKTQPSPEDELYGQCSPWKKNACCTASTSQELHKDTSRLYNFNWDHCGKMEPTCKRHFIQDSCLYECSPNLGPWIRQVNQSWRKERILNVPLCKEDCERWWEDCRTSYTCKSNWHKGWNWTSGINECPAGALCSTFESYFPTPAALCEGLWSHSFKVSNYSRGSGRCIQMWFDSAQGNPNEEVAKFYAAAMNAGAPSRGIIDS
Test: as above
Procedure: as §1

Row | signal-to-background ratio | Binder
21 | ~1 | B20

Biological target: T1, human FOLR1 expressed on SKOV-3 ovarian …
Test: cellular retention on SKOV-3 cells: 10 nM 131I-VHH 1 h at 4 C, then up to 24 h at 37 C; membrane-bound plus internalized fraction
Procedure: The in vitro cellular retention of the different His₆- and untagged ¹³¹I-labeled VHHs was assessed on the same cancer cells. In this particular case, human FOLR1^pos SKOV-3 cancer cells were incubated with 10 nM ¹³¹I-labelled VHHs for 1h at 4° C., after which the unbound fraction was collected. A 100-fold excess of the corresponding unlabeled VHH to assess non-specific binding. Next, the cells were incubated with fresh medium up to 24 h at 37° C., after which the dissociated fraction was collected. Afterwards, the cells were washed with 0.05 M glycine pH 2.8 to collect the membrane-bound fraction. Finally, cells were solubilized with 1 M NaOH at room temperature to collect the internalized fraction. The sum of the membrane-bound and internalized fractions corresponds to the total cell-associated fraction.

Row | cell-associated fraction of initial bound activity after 24 h | Binder
22 | ~60% | B5

Biological target: human FOLR1 recombinant protein (extracellular domain of human folate receptor alpha) (human) (UniProt P15328)
Sequence (P15328 25-233): as the sequence (P15328 25-233) above
Test: ELISA; coated recombinant protein, HA-tagged VHH in bacterial extract, anti-HA detection; A405 antigen well / blank well

Row | signal-to-background ratio | Binder
23 | > 20 | B20

Biological target: T1, human FOLR1 expressed on SKOV-3 ovarian …
Test: saturation binding of 99mTc-labelled His6-tagged VHH on SKOV-3 cells (0-300 nM); non-specific binding by 100-fold unlabelled VHH
Procedure: After quality control (> 95%), human FOLR1^pos SKOV-3 cancer cells were incubated with serial dilutions with concentrations ranging from 0 to 300 nM of the different ^99mTc-labelled VHHs. A 100-fold excess of the corresponding unlabeled VHH was added in parallel to saturate the human FOLR1 receptors expressed on cancer cells, to assess non-specific binding.

Row | EC50 | Binder
24 | 28.6 nM | B21
25 | 3.3 nM | B22
26 | 1.1 nM | B23
27 | 1 nM | B24
28 | 3.8 nM | B25

Biological target: T3, human folate receptor beta (FOLR2), …
Test: ELISA, coated recombinant protein, HA-tagged VHH in bacterial extract
Procedure: as §1

Row | binding result | Binder
29 | no binding | B20

Biological target: T4, human folate receptor gamma (FOLR3), …
Test: as above
Procedure: as §1

Row | binding result | Binder
30 | no binding | B20
